Residue numbers refer to the chain shown, from its start. Numbers in names are those of the source.
B1: Triple mutant B: Arrestin-3 triple mutant containing T299A, I386A and R166A when compared to human wt arrestin-3 (protein)
chain: MGEKPGTRVFKKSSPNCKLTVYLGKRDFVDHLDKVDPVDGVVLVDPDYLKDRKVFVTLTCAFRYGREDLDVLGLSFRKDLFIATYQAFPPVPNPPRPPTRLQDRLLRKLGQHAHPFFFTIPQNLPCSVTLQPGPEDTGKACGVDFEIRAFCAKSLEEKSHKRNSVALVIRKVQFAPEKPGPQPSAETTRHFLMSDRSLHLEASLDKELYYHGEPLNVNVHVTNNSTKTVKKIKVSVRQYADICLFSTAQYKCPVAQLEQDDQVSPSSTFCKVYTITPLLSDNREKRGLALDGKLKHEDANLASSTIVKEGANKEVLGILVSYRVKVKLVVSRGGDVSVELPFVLMHPKPHDHIPLPRPQSAAPETDVPVDTNLIEFDTNYATDDDAVFEDFARLRLKGMKDDDYDDQLC
modifications: Arrestin-3 triple mutant B containing T299A, I386A and R166A
B2: Triple mutant D: Arrestin-3 triple mutant containing T299A, I386A and R393A when compared to human wt arrestin-3 (protein)
chain: B1 chain with A166R, R393A
modifications: Arrestin-3 triple mutant D containing T299A, I386A and R393A
B3: Triple mutant C: Arrestin-3 triple mutant containing T299A, I386A and D298A when compared to human wt arrestin-3 (protein)
chain: B1 chain with A166R, D298A
modifications: Arrestin-3 triple mutant C containing T299A, I386A and D298A

Biological target: T1, β2-adrenergic receptor (β2AR, B2AR) (Homo sapiens, UniProt P07550)
T1 construct: expressed in transfected cells; host or cells: HEK293 cells (transient co-transfection, Lipofectamine 2000)
Assay: BRET arrestin recruitment assay: isoproterenol-induced recruitment of GFP-arrestin-3 WT or mutants to RLuc8-β2AR
Format: cell-based
Conditions: for Potency (pEC50 ± Std. error): isoproterenol concentration giving half-maximal arrestin recruitment to β2AR, BRET AUC over 19.5 min, isoproterenol 10 pM to 10 μM; for Recruitment to B2AR compared to wild-type arrestin-3 (in words): isoproterenol concentration-response curves, FIG. 1; for Efficacy (Emax ± Std. error) in %, normalized to WT: maximal isoproterenol-induced recruitment to β2AR, WT arrestin-3 at 10 μM isoproterenol set to 100%
Protocol: […] were seeded onto poly-L-lysine coated, white, 96-well plates at a density of ˜25,000 cells per well. […] The day following transfection, cell culture medium was exchanged with fresh medium. Another 24 h later cell culture medium was replaced with assay buffer (HBSS+20 mM HEPES and pH 7.4) and cells were treated with 5 μM cell-permeable substrate Coelenterazine 400A (Cayman Chemical), which is catalysed by the BRET donor RLuc8, resulting in the emission of light (λmax=410 nm). BRET measurement was performed in a plate reader PheraStar FSX (BMG Biotech) with the optical module (BRET2 plus, 515-30, 410-80). At t=4.5 min, isoproterenol (Tocris Bioscience) was added at increasing concentrations to the cells (from 10 pM to 10 μM). BRET ratio was determined by calculating the ratio of the light intensity emitted by the GFP (515 nm) over the light intensity emitted by the Rluc8/Coelenterazine 400A (410 nm). […] The coefficient of determination R^2 can range between 0 and 1 and represents the quality of the fitting between the experimental values (marks, FIG. 1) and the non-linear regression analysis (curves, FIG. 1). Experiments were performed in technical duplicates in two independent experiments.
An arrestin recruitment assay based on Bioluminescence Resonance Energy Transfer (BRET) was performed to compare the recruitment efficiencies of arrestin-3 double and triple mutants with wild-type arrestin-3 towards B2AR.
The recruitment responses can be defined by two pharmacological parameters: potency and efficacy. In general, efficacy (Emax) is a measure of the maximum effect that is expected from a compound/drug. […] Potency is often given as the EC50 value, which defines the amount of compound required to produce 50% of that compound's maximal effect. For simpler illustration, the pEC50 value, which is the negative logarithm of the EC50 in molar concentrations, is shown.
The potency (pEC50) represents the molar concentration of isoproterenol necessary to obtain half of the total recruitment of arrestin-3 or efficiency (Emax) for each arrestin.

Molecule | Potency (pEC50 ± Std. error) | Recruitment to B2AR compared to wild-type arrestin-3 (in words) | Efficacy (Emax ± Std. error) in %, normalized to WT | EC50 (converted from pEC50, isoproterenol-induced recruitment to β2AR, read-out: Potency expressed as isoproterenol concentration)
Double mutant A: Arrestin-3 double mutant containing T299A and I386A when compared to human wt arrestin-3 | 7.1±0.03 | increased recruitment efficacy | 131.5±1.82% | 
B1 | 7.3±0.06 | increased recruitment efficacy | 103.0 ± 2.53% | 50.1 nM
B2 | 7.2 ± 0.03 |  | 89.2 ± 1.23% | 
B3 | 7.2 ± 0.04 |  | 108.9 ± 1.84% | 
